Assays:
[1] = target: human IL-11 (Interleukin 11) (human) (UniProt P20809); experiment: cell-based or functional assay
murine IL-11 (mouse) = murine IL-11 (mouse) (UniProt P47873); experiment: cell-based or functional assay
UniProt P47873, sequence (P47873 22-199 limits assumed): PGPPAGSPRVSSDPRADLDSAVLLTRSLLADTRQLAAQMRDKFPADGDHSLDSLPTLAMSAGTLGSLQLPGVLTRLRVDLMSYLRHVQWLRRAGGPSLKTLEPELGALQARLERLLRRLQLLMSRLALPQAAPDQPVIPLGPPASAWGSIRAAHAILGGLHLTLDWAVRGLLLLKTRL

UniProt P20809, sequence (P20809 22-199 limits assumed): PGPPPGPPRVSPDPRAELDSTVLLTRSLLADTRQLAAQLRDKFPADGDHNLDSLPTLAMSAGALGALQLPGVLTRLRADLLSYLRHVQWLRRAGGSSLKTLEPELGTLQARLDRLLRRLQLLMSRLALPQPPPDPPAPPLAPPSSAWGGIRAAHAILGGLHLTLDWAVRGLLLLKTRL

**Q.** Which results are given for “neutralising anti-human IL-11 monoclonal antibody (Monoclonal Mouse IgG2A; Clone #22626; Catalog No. MAB218; R&D Systems)”?
**A.** percentage of activated (αSMA-positive) fibroblasts, TGFβ1-stimulated human atrial fibroblasts [1]: 28.3%; percentage of activated fibroblasts normalised to non-stimulated cultures (=1) (fold of non-stimulated cultures) [1]: 0.99; percentage of activated fibroblasts, TGFβ1-stimulated human atrial fibroblasts, relative to unstimulated cultures [1]: 0.89 fold; percentage of activated fibroblasts normalised to non-stimulated cultures (=1) (fold of non-stimulated cultures) (murine IL-11 (mouse)): 1.24; percentage of activated fibroblasts, TGFβ1-stimulated mouse atrial fibroblasts, relative to unstimulated cultures (murine IL-11 (mouse)): 1.44 fold; percentage of activated fibroblasts, TGFβ1-stimulated mouse dermal fibroblasts (murine IL-11 (mouse)): 39.4%
